Reference: the RNAGym collection of RNA variant scans (doi:10.1073/pnas.2313332121)

B1: TPR t1 (parent)
chain: GACCAAUCUGCCCUCAGAGCUCGAGAACAUCUUCGGAUGCAGAGGAGGCAGGCUUCGGUGGCGCGAUAGCGCCAACGUCCUCAACCUCCAAUGCAUCCCACCACAUGAUGAUGCCUGAAGAGCCUUGGUUUUUUG

Variants of: B1
Assay: polymerase ribozyme fitness, log enrichment relative to wild type (log ratio); higher = more active; in vitro selection for triplet polymerase activity
Method in brief: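 Libraries of mutants in each subunit of a heterodimeric triplet polymerase ribozyme were generated by PCR and transcribed. In triplicate, each went through one in vitro selection round: annealing with biotinylated primer, partner subunit and triplets; frozen incubation at −7 °C; gel excision of extended constructs; streptavidin-bead capture; RT-PCR. Fitness, taken from Illumina sequencing of input and output libraries, is the logarithm of a genotype's enrichment over wild-type enrichment, averaged across replicates with inverse-variance weights. The logarithm is base 2, and genotypes needed ≥10 input reads and ≥1 read per output to be kept.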

Variant	polymerase ribozyme fitness (log ratio)
GACCAAUCUGCCCUCAGAGCUCGAGAAGAUCUUCGGAUGCAGAGGAGGCAGGCUUCGGUGGCGCGAUAGCGCCAACGUCCUCAACCUCCAAUGCAUCCCACCACAUGAUGAUGCCUGAAGAGCGUUGGUUUUUUG	-0.979
GACCAAUCUGCCCUCAGAGCUCGAGAAGAUCUUCGGAUGCAGAGGAGCCAGGCUUCGGUGGCGCGAUAGCGCCAACGUCCUCGUCCUCCAAUGCAUCCCACCACAUGAUGAUGCCUGAACAGCCUUGGUUUUUUG	-2.29
GACCAAUCUGCCCUCAGAGCUCGAGAAGAUCUUCGGAUGCAGAGGAGGCAGGCUUCGGUGGCGUGAUAGCGCCAACGUCCACAACCUCCAAUUCAUCCCAUCACAUGAUGAGGCCUGAAGAGCCUUGGUUUUUUG	-5.16
GACCAAUCUGCCCUCAGAGCUCGAGAAGAUCUUCGGAUGCAGAGGAUGCAGGUUUCGGUGGCGCGAUAGCGCCAACGUCCUCAACCUCCAAUGCAUCCCACCACAUGAUGAUGCCUGAAGAGCCUUGGUUUUUUG	-4.48
GACCAAUCUGCCCUCAGAGCUCGAGAAGAUCUUCGGAUGCAGAGGAGGCAGGCUUCGGUGGCGCGAUAGCGCCAACGUCCUCAACCUCCAAUGCAUCUCACCACAUGAUGAUGCCUGAAGAGCCUUGGUUUUUUG	-4.78
GACCAAUCUGCCCUCAGAGCUCGAGAAGAUCUUCGGAUGCAGAGGAGGCAGGCUUCGGUAGCGCGAUAGCGCCAACGUCCUCAACCUCCAAUGCAUCCCACCACAUGAUGAUGCCUGAAGAGCCUUGGUUUUUUG	-3.53
GACCAAUCUGCCCUCAGAGCUCGAGAAGAUCUUCGUAUGCAGAGGAGGCAGGCUUCGGUGGCGCGAUAGCGUUAACGUCCUCAACCUCCAAUGCAUCCCACCACAUGAUGAUGCCUGAAGAGCCUUGGUUUUUUG	-4.2
GACCAAUCUGCCCUCAGAGCUCGAGAAGAUCUUCGGAUGCAGAGGAGGCAGGCUUCGGUGGCGCGAUAGAGCCAACGUCCUCAACCUCCGAUGCAUCCCACCACAUGAUGAUGCCUUAAGAGCCUUGGUUUUUUG	-5.76
GACCAAUCUGCCCUCAGAGCUCGAGAAGAUCUUCGGAUGCAGAGGAGGCAGGCUUCGCUGGCGCGAUAGCGCCAACGUCCUCAACCUCCAAUGAAUCCCACCACAUGAUGAUGCCUGAAGAGCCUUGGUUUUUUG	-3.94
GACCAAUCUGCCCUCAGAGCUCGAGAAGAUCUUCGGAUGCAGAGGAGGCAGGCUUCCGUGGCGCGAUAGCGCCAACGUCCUCAUCCUCCAAUGUAUCCCACCACAUGAUGAUGCCUGUAGAGCCUUGGUUUUUUG	-2.35
GACCAAUCUGCCCUCAGAGCUCGAGAAGAUCUUCGGAUGCAGAGGAGGCAGGCUUCGGUAGCGCGAUAGCGCCAACGUGCUCAACCUCCAAUGCAUCCCACCACAUGAUGAUGCCUGAAGAGCCUUGGUUUUUUG	-4.94
GACCAAUCUGCCCUCAGAGCUCGAGAAGAUCUUCGGAUGCAGAGGAGGCAGGCUUCGGUGGCGCGAUAGCGCCAACGUCCUCAACCUCCAAUGAAUCCCACCACAUGAUGAUGCCUGAAGAGCCUUGGUUUUUUG	-4.49
GACCAAUCUGCCCUCAGAGCUCGAGAAGAUCUUCGGAUGCAGAGGAGGCAGGCUUGGGUGGCGCGAUAGCGCCAACGUCCUCAACUUCCAAUGCAUCCCACCACAUGAUGAUGCCUGAAGAGCUUUGGUUUUUUG	-1.07
GACCAAUCUGCCCUCAGAGCUCGAGAAGAUCUUCGGAUGCAGAGGAGGCAGGUUUUGGUGGCGCGAUAGCGCCAACGUCCUCAACCUCCAAUGCAUCCCACCACAUGAUGAUGCCUGAAGAGCCUUGGUUUUUUG	-2.28
GACCAAUCUGCCCUCAGAGCUCGAGAAGAUCUUCGGAUGCAGAGGAGGCAGGCUUUGGUGGCGCGAUAGCGCCAACGUCUUCAACCUCCAAUGCAUCCCACCACAUGAUGAUGCCUGAAGAGCCUUGGUUUUUUG	-4.97
GACCAAUCUGCCCUCAGAGCUCGAGAAGAUCUUCGGAUGCAGAUGAGGCAGGCUUCGGUGGCGCGAUAGCGCCAACGUCCUCAACCUCCAAUGCAUCCCACCACAUGAUGCUGCCUCAAGAGCCUUGGUUUUUUG	-6.59
GACCAAUCUGCCCUCAGAGCUCGAGAAGAUCUUCGGAUGCAGAGGAGGCAGGCUUCGGUGGCGCGAUAGCGCCAACGUCCUCAACCUCCAAUGCAUCCCAUCACAUGAUGAUGCCUGAAGAGCCUUGGUUUUUUG	-3.08
GACCAAUCUGCCCUCAGAGCUCGAGAAGAUCUUCGGAUCCAGAGGAGGUAGGCUUCGGUGGCGCGAUAACGCCAACGUCCUCAACCUCCAAUGCAUCCCACCACAUGAUGAUGCCUGAAGAGCCUUGGUUUUUUG	-6.04
GACCAAUCUGCCCUCAGAGCUCGAGAAGAUCUUCGGAUUCAGAGGAGGCAGGUUUCGGUGGCCCGAUAGCGCCAACGCCCUCAACCUCCAAUGCAUCCCACCACAUGAUGAUGCCUGAAGAGCAUUGGUUUUUUG	-3.85
GACCAAUCUGCCCUCAGAGCUCGAGAAGAUCUUCGGAUGCAGAGGAGGCAGGCUUCGGUGGCCCGAUAGCGCCAACGUCCUCAACCUCCAAUGCAUCCCACCACAUGAUGAUGCCUGAAGAGCCUUGGAUUUUUG	-4.76
GACCAAUCUGCCCUCAGAGCUCGAGAAGAUCUUCGGAUGCAGAGGAGGCAGGUUUGGGUGGCGCGAUAGCGCCAACAUCCUCAACCUUCAAUGCAUCCCACCACAUGAUGAUGCCUGAAGAGCCUUGGUUUUUUG	-1.92
